Earlier results in PMC12493192.
pKd: −log10 of the molar value. Read-outs that look alike come from different tables or passages of the source.

Key:
[1] = biological target: GC-C (Homo sapiens) (UniProt P25092)
[2] = biological target: GC-C (Homo sapiens) (UniProt P25092); remark: listed apart in the source

UniProt P25092, sequence (P25092 24-430): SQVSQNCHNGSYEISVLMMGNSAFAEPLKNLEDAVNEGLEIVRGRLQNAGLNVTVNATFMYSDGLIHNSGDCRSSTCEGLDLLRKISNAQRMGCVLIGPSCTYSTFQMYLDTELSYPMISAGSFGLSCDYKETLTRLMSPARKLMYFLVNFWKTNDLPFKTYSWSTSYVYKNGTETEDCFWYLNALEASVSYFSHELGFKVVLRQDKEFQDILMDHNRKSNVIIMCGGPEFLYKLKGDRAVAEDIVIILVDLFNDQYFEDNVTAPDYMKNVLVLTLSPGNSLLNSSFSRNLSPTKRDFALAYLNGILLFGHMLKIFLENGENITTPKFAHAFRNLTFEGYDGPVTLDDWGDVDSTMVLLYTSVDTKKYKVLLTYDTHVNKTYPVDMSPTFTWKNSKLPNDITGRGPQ

| Substance | pKd [1] | pKd [2] |
| --- | --- | --- |
| guanylin (from UniProt Q02747) | 8.00 |  |
| uroguanylin (from UniProt Q16661) |  | 9.00 |
